In PMC9398157:
Values joined by “and” are separate entries in the source; they are usually repeats but may differ in a detail not shown here. Identical values can stand only once. Like-named read-outs stand apart in the source and are kept apart here.

What was measured:
[1] = biological target: DR5 on Colo205 and H-EMC-SS cells (Homo sapiens) (UniProt O14763)
[2] = biological target: Death receptor 5 (human DR5), as used in SPR, Octet and ELISA (human) (UniProt O14763); experiment: SPR
[3] = biological target: Death receptor 5 (human DR5), as used in SPR, Octet and ELISA (human) (UniProt O14763); experiment: SPR; remark: listed apart in the source
[4] = biological target: DR5 on Colo205 and H-EMC-SS cells (Homo sapiens) (UniProt O14763); experiment: flow cytometry on cells
[5] = biological target: DR5 on Colo205 and H-EMC-SS cells (Homo sapiens) (UniProt O14763); experiment: flow cytometry on cells; remark: listed apart in the source

IGM-8444 (antibody) was tested. Which cytotoxicity on Colo205 cells, IC50 (CellTiter-Glo viability after 24 hours) [1] did it give?
The cytotoxicity on Colo205 cells, IC50 (CellTiter-Glo viability after 24 hours) was 1.1 ng/mL and 1.3 pmol/L.

What about the cytotoxicity on H-EMC-SS cells, IC50 (CellTiter-Glo viability after 24 hours) [1] of the same substance?
Its cytotoxicity on H-EMC-SS cells, IC50 (CellTiter-Glo viability after 24 hours) is 0.32 ng/mL and 0.37 pmol/L.

And the Kd [2]?
Its Kd is < 0.011 nM.

What about the Kd [3] of the same substance?
The Kd was 85 nM.

And the EC50 [4]?
The EC50 was 0.2 nM.

What about the EC50 [5] of the same substance?
Its EC50 is 0.073 nM.
